Where no end group is shown, it is not given here.
Key:
[1] = target: T1, Anti-CD28 Fab (SEQ ID NOs: 696, 697); assay: phage ELISA; captured anti-CD28 Fab pre-incubated with CD28 antigen as competitor, anti-M13 HRP detection;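 further: crude clonal phage supernatants screened by ELISA, with wells pre-incubated with CD28 antigen in blocking buffer, compared against wells given blocking buffer alone as control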
T1 construct: In the phage ELISA the Fab was biotinylated and captured on neutravidin coated plates
T1 sequence (VH, as listed by the source, chain 1 of 2): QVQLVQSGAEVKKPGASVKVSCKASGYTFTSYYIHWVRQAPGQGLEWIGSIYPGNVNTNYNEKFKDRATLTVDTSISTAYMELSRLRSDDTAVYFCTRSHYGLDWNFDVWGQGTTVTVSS
T1 sequence (VL, as listed by the source, chain 2 of 2): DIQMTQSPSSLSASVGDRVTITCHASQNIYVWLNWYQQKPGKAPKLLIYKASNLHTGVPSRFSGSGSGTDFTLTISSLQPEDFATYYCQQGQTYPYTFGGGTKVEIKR
Protocol: (§1) After panning, phage infected bacteria were plated out and colonies picked into 96 well blocks. Clonal phage was then amplified and separated from bacterial cells via centrifugation.
(§2) Clonal phage were harvested as crude supematants and screened via standard ELISAs. […] Prior to the addition of clonal phage, wells were incubated with blocking buffer and CD28 antigen or blocking buffer alone. Without washing or aspirating, clonal phage supematants were then added to the wells and incubated for a short time. Wells were then washed followed by detection of bound phage using a horse radish conjugated anti-M13 antibody. Clonal phage of interest were then sent for sequence analysis.

[2] = target: T1, Anti-CD28 Fab (SEQ ID NOs: 696, 697); assay: phage ELISA; biotinylated anti-CD28 Fab on neutravidin plate, clonal phage supernatant, anti-M13 HRP detection;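 further: crude supernatants of single phage clones picked after panning were screened for binding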
Protocol: as §1, §2

[3] = target: Anti-CD28 Fab (SEQ ID NOs: 696, 697); assay: phage ELISA on captured anti-CD28 Fab, wells pre-incubated with CD28 antigen as competitor;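 further: crude clonal phage supernatants added without washing, bound phage read out by HRP-coupled anti-M13 antibody, reference wells given blocking buffer only instead of CD28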
Target sequence in this assay (VH, as listed by the source, chain 1 of 2): as the sequence (VH, as listed by the source, chain 1 of 2) above
Target sequence in this assay (VL, as listed by the source, chain 2 of 2): as the sequence (VL, as listed by the source, chain 2 of 2) above

[4] = target: Anti-CD28 Fab (SEQ ID NOs: 696, 697); assay: phage ELISA, clonal phage supernatant on biotinylated anti-CD28 Fab captured on neutravidin plates
Target sequence in this assay (VH, as listed by the source, chain 1 of 2): as the sequence (VH, as listed by the source, chain 1 of 2) above
Target sequence in this assay (VL, as listed by the source, chain 2 of 2): as the sequence (VL, as listed by the source, chain 2 of 2) above
Protocol: as §1, §2

[5] = target: T2, Anti-CD28 Fab (SEQ ID NOs: 696, 697); assay: phage binding ELISA; biotinylated anti-CD28 Fab on neutravidin plate, clonal phage detected with anti-M13 HRP
T2 construct: In the phage ELISA the Fab was biotinylated and captured on neutravidin coated plates
T2 sequence (VH, as listed by the source, chain 1 of 2): as the sequence (VH, as listed by the source, chain 1 of 2) above
T2 sequence (VL, as listed by the source, chain 2 of 2): as the sequence (VL, as listed by the source, chain 2 of 2) above
Protocol: as §1, §2

[6] = target: T2, Anti-CD28 Fab (SEQ ID NOs: 696, 697); assay: phage binding ELISA; Fab-coated wells pre-incubated with CD28 antigen as competitor, phage detected with anti-M13 HRP
Protocol: as §1, §2

| Binder | Anti-CD28 Fab signal in the presence of CD28 (phage binding ELISA) [1] | Anti-CD28 Fab signal (phage binding ELISA) [2] | Anti-CD28 Fab signal (phage binding ELISA) [5] | Anti-CD28 Fab signal in the presence of CD28 (phage binding ELISA) [6] | other results |
| --- | --- | --- | --- | --- | --- |
| YCEGHLPAYMWKCL (Tested as clonal phage supernatant; not shown: pIII coat protein of the bacteriophage to which the peptide is fused) [Phage-1109 (Peptide-87 library clone, SEQ ID NO: 1425)] | 0.08 | 1.31 |  |  |  |
| YCDGHLEVYMDKCL (Peptide-87 library clone, tested as clonal phage (peptide fused to pIII of the bacteriophage)) [Phage-1122] |  |  |  |  | Anti-CD28 Fab signal in the presence of CD28 (phage binding ELISA) [3]: 0.07; Anti-CD28 Fab signal (phage binding ELISA) [4]: 1.28 |
| YCDGHAPQYMAKCI (Tested as clonal phage supernatant; not shown: pIII coat protein of the bacteriophage to which the peptide is fused) [Phage-1115 (Peptide-87 library clone, SEQ ID NO: 1431)] | 0.06 | 1.3 |  |  |  |
| YCDGHLPLYMQKCF (Tested as clonal phage supernatant; not shown: pIII coat protein of the bacteriophage to which the peptide is fused) [Phage-1102 (Peptide-87 library clone, SEQ ID NO: 1418)] | 0.1 | 1.33 |  |  |  |
| YCEGHLVQYMQKCL (Peptide-87 library clone, tested as clonal phage (peptide fused to pIII of the bacteriophage)) [Phage-1119] |  |  |  |  | Anti-CD28 Fab signal in the presence of CD28 (phage binding ELISA) [3]: 0.06; Anti-CD28 Fab signal (phage binding ELISA) [4]: 1.28 |
| YCEGHSAVYMSKCL (Tested as clonal phage supernatant; not shown: pIII coat protein of the bacteriophage to which the peptide is fused) [Phage-1113 (Peptide-87 library clone, SEQ ID NO: 1429)] | 0.06 | 1.31 |  |  |  |
| YCDGHSAEYIAKCL (Tested as clonal phage supernatant; not shown: pIII coat protein of the bacteriophage to which the peptide is fused) [Phage-1112 (Peptide-87 library clone, SEQ ID NO: 1428)] | 0.05 | 1.31 |  |  |  |
| YCDGHSETYLWKCL (cysteine pairing not given here; also: displayed as fusion to phage pIII, linker not given here) [Phage-1081] |  |  | 1.37 | 0.1 |  |
| YCSEHQIIFIQKCL (Tested as clonal phage supernatant; not shown: pIII coat protein of the bacteriophage to which the peptide is fused) [Phage-1104 (Peptide-87 library clone, SEQ ID NO: 1420)] | 0.08 | 1.32 |  |  |  |
| YCEGHLPAYMGKCI (cysteine pairing not given here; also: displayed as fusion to phage pIII, linker not given here) [Phage-1082] |  |  | 1.37 | 0.09 |  |
| YCAGHALEYMGKCL (Tested as clonal phage supernatant; not shown: pIII coat protein of the bacteriophage to which the peptide is fused) [Phage-1107 (Peptide-87 library clone, SEQ ID NO: 1423)] | 0.06 | 1.32 |  |  |  |
| YCDGHTAEFIGKCL (Tested as clonal phage supernatant; not shown: pIII coat protein of the bacteriophage to which the peptide is fused) [Phage-1106 (Peptide-87 library clone, SEQ ID NO: 1422)] | 0.06 | 1.32 |  |  |  |
| YCDGHQPQYMSKCL (cysteine pairing not given here; also: displayed as fusion to phage pIII, linker not given here) [Phage-1078] |  |  | 1.38 | 0.09 |  |
| YCDGHLSEYIGKCL (cysteine pairing not given here; also: displayed as fusion to phage pIII, linker not given here) [Phage-1079] |  |  | 1.37 | 0.06 |  |
| YCMGHLPIYMEKCL (Peptide-87 library clone, tested as clonal phage (peptide fused to pIII of the bacteriophage)) [Phage-1120] |  |  |  |  | Anti-CD28 Fab signal in the presence of CD28 (phage binding ELISA) [3]: 0.05; Anti-CD28 Fab signal (phage binding ELISA) [4]: 1.28 |
| YCEGHLEIYLAKCL (Tested as clonal phage supernatant; not shown: pIII coat protein of the bacteriophage to which the peptide is fused) [Phage-1105 (Peptide-87 library clone, SEQ ID NO: 1421)] | 0.07 | 1.32 |  |  |  |
| YCEGHLPRYMLKCL (Peptide-87 library clone, tested as clonal phage (peptide fused to pIII of the bacteriophage)) [Phage-1121] |  |  |  |  | Anti-CD28 Fab signal in the presence of CD28 (phage binding ELISA) [3]: 0.3; Anti-CD28 Fab signal (phage binding ELISA) [4]: 1.28 |

| Binder | Anti-CD28 Fab signal in the presence of CD28 (phage binding ELISA) [1] | Anti-CD28 Fab signal (phage binding ELISA) [2] | Anti-CD28 Fab signal (phage binding ELISA) [5] | Anti-CD28 Fab signal in the presence of CD28 (phage binding ELISA) [6] | other results |
| --- | --- | --- | --- | --- | --- |
| YCDGHLALYMWKCL (cysteine pairing not given here; also: displayed as fusion to phage pIII, linker not given here) [Phage-1087] |  |  | 1.36 | 0.17 |  |
| YCAGHMPIYMTKCL (Peptide-87 library clone, tested as clonal phage (peptide fused to pIII of the bacteriophage)) [Phage-1117] |  |  |  |  | Anti-CD28 Fab signal in the presence of CD28 (phage binding ELISA) [3]: 0.08; Anti-CD28 Fab signal (phage binding ELISA) [4]: 1.3 |
| YCDGHRAEYMLKCL (Peptide-87 library clone, tested as clonal phage (peptide fused to pIII of the bacteriophage)) [Phage-1118] |  |  |  |  | Anti-CD28 Fab signal in the presence of CD28 (phage binding ELISA) [3]: 0.08; Anti-CD28 Fab signal (phage binding ELISA) [4]: 1.29 |
| YCAGHLPMYMQKCL (Tested as clonal phage supernatant; not shown: pIII coat protein of the bacteriophage to which the peptide is fused) [Phage-1103 (Peptide-87 library clone, SEQ ID NO: 1419)] | 0.08 | 1.33 |  |  |  |
| YCEGHLPMYMQKCL (Tested as clonal phage supernatant; not shown: pIII coat protein of the bacteriophage to which the peptide is fused) [Phage-1110 (Peptide-87 library clone, SEQ ID NO: 1426)] | 0.08 | 1.31 |  |  |  |
| YCDGHIPEYMTKCL (Tested as clonal phage supernatant; not shown: pIII coat protein of the bacteriophage to which the peptide is fused) [Phage-1111 (Peptide-87 library clone, SEQ ID NO: 1427)] | 0.06 | 1.31 |  |  |  |
| YCDGHMKEYMLKCL (cysteine pairing not given here; also: displayed as fusion to phage pIII, linker not given here) [Phage-1085] |  |  | 1.36 | 0.06 |  |
| YCEGHSQLYMAKCL (cysteine pairing not given here; also: displayed as fusion to phage pIII, linker not given here) [Phage-1080] |  |  | 1.37 | 0.07 |  |
| YCEGHSLEYMMKCV (Tested as clonal phage supernatant; not shown: pIII coat protein of the bacteriophage to which the peptide is fused) [Phage-1114 (Peptide-87 library clone, SEQ ID NO: 1430)] | 0.07 | 1.3 |  |  |  |
| YCEGHLPEYMIKCL (Tested as clonal phage supernatant; not shown: pIII coat protein of the bacteriophage to which the peptide is fused) [Phage-1108 (Peptide-87 library clone, SEQ ID NO: 1424)] | 0.06 | 1.32 |  |  |  |
| YCEGHLPEYMIKCI (cysteine pairing not given here; also: displayed as fusion to phage pIII, linker not given here) [Phage-1083] |  |  | 1.36 | 0.1 |  |
| YCDGHVKEYMYKCL (cysteine pairing not given here; also: displayed as fusion to phage pIII, linker not given here) [Phage-1086] |  |  | 1.36 | 0.06 |  |
| YCAGHTSEYMSKCL (cysteine pairing not given here; also: displayed as fusion to phage pIII, linker not given here) [Phage-1084] |  |  | 1.36 | 0.07 |  |
| YCQGHSVEHMAKCL (Peptide-87 library clone, tested as clonal phage (peptide fused to pIII of the bacteriophage)) [Phage-1116] |  |  |  |  | Anti-CD28 Fab signal in the presence of CD28 (phage binding ELISA) [3]: 0.06; Anti-CD28 Fab signal (phage binding ELISA) [4]: 1.3 |
| YCEGHSSQWMWKCL (Peptide-87 library clone, tested as clonal phage (peptide fused to pIII of the bacteriophage)) [Phage-1124] |  |  |  |  | Anti-CD28 Fab signal in the presence of CD28 (phage binding ELISA) [3]: 0.09; Anti-CD28 Fab signal (phage binding ELISA) [4]: 1.27 |
| YCDGHLSIYMTKCL (cysteine pairing not given here; also: displayed as fusion to phage pIII, linker not given here) [Phage-1088] |  |  | 1.36 | 0.07 |  |
| YCDGHSPAYLQKCL (Peptide-87 library clone, tested as clonal phage (peptide fused to pIII of the bacteriophage)) [Phage-1123] |  |  |  |  | Anti-CD28 Fab signal in the presence of CD28 (phage binding ELISA) [3]: 0.06; Anti-CD28 Fab signal (phage binding ELISA) [4]: 1.28 |

— patent US20260242478A1 (published 2026)
